# Data: US20200338209A1, “ANTI-B7-H3 ANTIBODIES AND ANTIBODY DRUG CONJUGATES” (AbbVie Inc., priority 2016, published 2020)
# Where a chain is given by its changes, count along the chain named.
# T1: human B7-H3 (4Ig-B7-H3 variant) (Homo sapiens, UniProt Q5ZPR3)
# T1 construct: His tag (6xHis) (C)
# T1 sequence (Q5ZPR3 with tags, fused parts or gaps): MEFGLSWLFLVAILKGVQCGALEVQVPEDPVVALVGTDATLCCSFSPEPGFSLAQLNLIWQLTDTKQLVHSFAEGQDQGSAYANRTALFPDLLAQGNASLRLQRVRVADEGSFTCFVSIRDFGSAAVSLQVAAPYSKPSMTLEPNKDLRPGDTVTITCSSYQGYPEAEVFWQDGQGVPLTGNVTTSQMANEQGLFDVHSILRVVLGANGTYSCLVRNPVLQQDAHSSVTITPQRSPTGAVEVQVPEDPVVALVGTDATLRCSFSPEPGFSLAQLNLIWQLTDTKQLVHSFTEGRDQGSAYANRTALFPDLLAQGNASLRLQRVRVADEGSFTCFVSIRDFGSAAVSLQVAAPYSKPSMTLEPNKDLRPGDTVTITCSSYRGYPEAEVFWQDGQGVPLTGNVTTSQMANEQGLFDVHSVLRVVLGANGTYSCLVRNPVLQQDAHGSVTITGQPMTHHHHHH
# B1: Ab5: murine anti-B7-H3 mAbs; mouse hybridoma derived (antibody, V domains shown)
# VH: QVQLQQPGDELVKPGASVKLSCKTSGYTFTTDWMHWVKQRPGQGLEWIGMIHPNSGTTNYNEKFKSKAALTVDKSSSTACMQLSSLTSEDSAVYYCARSYWKWYFDVWGTGTTVTVSS
# VL: QIVLTQSPAIMSASLGEEITLTCSASSSVSYMHWYQQKSGTSPKLLIYSTSNLASGVPSRFSGSGSGTFYSLTISSVEAEDSADYYCHQWTSYMYTFGGGTKLEIK
# B2: Ab8: murine anti-B7-H3 mAbs; mouse hybridoma derived (antibody, V domains shown)
# VH: EVKLVESGGGLVKPGGSLKLSCAASGFTFSSYGMSWVRQTPEKRLEWVATISGGGNYTYCPDSVKGRFTISRDNAKNNLYLQMSSLRSEDTALYYCTRQRGYDYHYAMDFWGQGTSVTVSS
# VL: DIQMTQSPASLSVSVGETVTITCRASENIYSNLAWHQQKQGKSPQLLVYAATNLADGVPSRFSGNGSDTQYSLKINSLQSEDFGSYFCQNFWGTSWTFGGGTKLEIK
# B3: Ab16: mouse hybridoma derived anti-B7-H3 monoclonal antibodies (mAbs) (antibody, V domains shown)
# VH: EVKLLESGGGLVQPGGSLKLSCAASGFDFSRYWMSWVRQAPGKGLEWIGEINPDSSTINYTPSLKDKFIISRDNAKNTLYLQMSKVRSEDTALYYCARPGFGNYIYAMDYWGQGTSVTVSS
# VL: DIQMTQTTSSLSASLGDRVTINCRASQDISNFLNWYQQKPDGTVKLLIYYTSRLYLGVPSRFSGSGSGTDYSLTISNLEQEDIATYFCQQGNTLPPTFGGGTKLEIK
# B4: Ab14: mouse hybridoma derived anti-B7-H3 monoclonal antibodies (mAbs) (antibody, V domains shown)
# VH: EVKLVESGGGLVKPGGSLKLSCAASGFTFSSYGMSWVRQTPEKRLEWVATISGGGTNTYYPDSVEGRFTISRDNAKNFLYLQMSSLRSEDTALYYCARHYGSQTMDYWGQGTSVTVSS
# VL: DIQMTQSPASLSASVGETVTITCRTSGNIHNYLTWYQQKQGKSPQLLVYNAKTLADGVPSRFSGSGSGTQFSLKINSLQPEDFGSYYCQHFWSIMWTFGGGTKLEIK
# B5: Ab10: mouse hybridoma derived anti-B7-H3 monoclonal antibodies (mAbs) (antibody, V domains shown)
# VH: DVQLQESGPGLVKPSQSLSLTCTVTGYSITSDYAWNWIRQFPGNRLEWMGHINYSGITNYNPSLKSRISITRDTSKNQFFLQLYSVTTEDTATYFCARRSLFYYYGSSLYAMDYWGQGTSVTVSS
# VL: DVVMTQSPFSLPVSLGDQASISCRSSQSLVHSNGNTYLHWYLQKPGQSPKLLIYKVSNRFSGVPDRFSGSGSGTDFTLKISRVEAEDLGVYFCSQSTHVPWTFGGGTKLEIK
# B6: Ab3: murine anti-B7-H3 mAbs; mouse hybridoma derived (antibody, V domains shown)
# VH: QVQLQQPGAELVKPGASVKLSCKASGYTFSSYWMHWVKQRPGQGLEWIGLIHPDSGSTNYNEMFKNKATLTVDRSSSTAYVQLSSLTSEDSAVYFCAGGGRLYFDYWGQGTTLTVSS
# VL: B5 VL with S7T, F9L, N35D, H39R, S81T, W101Y
# B7: Ab18: the murine monoclonal Ab18 (antibody, V domains shown)
# VH: QVQLQQSAAELARPGASVKMSCKASGYSFTSYTIHWVKQRPGQGLEWIGYINPNSRNTDYNQKFKDETTLTADRSSSTAYMQLISLTSEDSAVYYCARYSGSTPYWYFDVWGAGTTVTVSS
# VL: QIVLTQSPAILSASPGEKVTMTCRASSSVSYMNWYQQKPGSSPKPWIYATSNLASGVPARFSVSVSGTSHSLTISRVEAEDAATYYCQQWSSNPLTFGAGTKLELK
# B8: Ab4: murine anti-B7-H3 mAbs; mouse hybridoma derived (antibody, V domains shown)
# VH: QVQLQQPGAELVKPGASVKLSCKASGYSFTSYWMHWVKQRPGQGLEWIGMIHPNSGSNNYNEKFKSKATLTVDKSSNTAYMQLSSLTSEDSAVYYCARRLGLHFDYWGQGTTLTVSS
# VL: DIVMTQSQKFMSTPVGDRVSITCKASQNVGTAVAWYQQKPGQSPKLLIYSASNRYTGVPDRFTGSGSGTDFTLTISNMQSEDLADYFCQQYSSYPYTFGGGTKLEIK
# B9: Ab13: mouse hybridoma derived anti-B7-H3 monoclonal antibodies (mAbs) (antibody, V domains shown)
# VH: DVQLQESGPDLVKPSQSLSLTCTVTGYSITSGYSWHWIRQFPGNKLEWMGYIHSSGSTNYNPSLKSRISINRDTSKNQFFLQLNSVTTEDTATYYCAGYDDYFEYWGQGTTLTVSS
# VL: DIVMTQSQKFMSTSVGDRVSVTCKASQNVGFNVAWYQQKPGQSPKALIYSASYRYSGVPDRFTGSGSGTDFTLTISNVQSEDLAEYFCQQYNSYPFTFGSGTKLEIK
# B10: Ab12: murine anti-B7-H3 mAbs; mouse hybridoma derived (antibody, V domains shown)
# VH: EVQLVESGGGLVKPGGSLKLSCAASGFTFSSYAMSWVRQTPEKRLEWVATISSGTNYTYYPDSVKGRFTISRDNAKNTLYLQMTSLRSEDTAMYYCARQGRYSWIAYWGQGTLVTVSA
# VL: DIVLTQSPASLAVSLGQRATISCRASKSVSTSDYSYMHWNQQKPGQPPKLLIYLASNLESGVPARFSGSGSGTDFTLNIHPVEEEDAATYYCQHSRELLTFGAGTKLELK
# Target: T1, human B7-H3 (4Ig-B7-H3 variant)
# Experiment: Biacore T200 SPR binding kinetics, mAb capture, soluble ECD of human B7-H3
# Settings: 1:1 binding model
# Protocol: (§1) The binding affinity of the purified anti-B7-H3 monoclonal antibodies was determined by surface […]. […] The binding kinetics were derived from SPR measurements using a Biacore T200 instrument and a mAb capture approach (as described in the materials and methods below).
# (§2) Biacore T200 SPR instruments were used to measure the binding kinetics of human B7-H3 (4Ig-B7-H3 variant) (analyte) binding to various mAbs (ligands). The assay format was Fc-based capture via immobilized anti-mouse (Fc) (Pierce 31170) or immobilized anti-human (Fc) (Pierce 31125). A standard amine coupling protocol was employed to immobilize the capture reagents via primary amines to the carboxy-methyl (CM) dextran surface of CM5 sensorchips (Biacore); capture antibodies were coupled to a level of approximately 5000RU. For binding kinetic measurements the assay buffer was HBS-EP+ (Biacore): 10 mM Hepes, pH7.4, 150 mM NaCl, 3 mM EDTA, 0.05% polysorbate 20. During the assay, all measurements were referenced against the capture surface alone. Each assay cycle consisted of the following steps: 1) Capture of ligand to approximately 50RU; 2) Analyte injection over both reference and test surface, 240 μL at 80 μL/min, after which the dissociation was monitored for 900 seconds at 80 μL/min; 3) Regeneration of capture surface with low pH glycine. For kinetic determinations analyte injections were 3-point, 9-fold dilution series of 900 nM, 100 nM and 11.11 nM, buffer only injections were included for secondary referencing. Data were processed and fit to a 1:1 binding model using Biacore T200 Evaluation Software to determine the binding kinetic rate constants, ka (on-rate) and kd (off-rate), and the equilibrium dissociation constant (affinity, KD).
Molecule,ka (1/Ms) huB7-H3,kd (1/s) huB7-H3
B1,1.3e+06 M⁻¹ s⁻¹,0.012 s⁻¹
B2,58000 M⁻¹ s⁻¹,9.9e-05 s⁻¹
B3,140000 M⁻¹ s⁻¹,0.0032 s⁻¹
B4,110000 M⁻¹ s⁻¹,0.0014 s⁻¹
B5,41000 M⁻¹ s⁻¹,0.00019 s⁻¹
B6,520000 M⁻¹ s⁻¹,0.01 s⁻¹
B7,210000 M⁻¹ s⁻¹,3.6e-05 s⁻¹
B8,690000 M⁻¹ s⁻¹,0.0011 s⁻¹
B9,330000 M⁻¹ s⁻¹,0.0058 s⁻¹
B10,38000 M⁻¹ s⁻¹,0.00025 s⁻¹

# Tested on: cyno B7-H3
# Sequence (as listed by the source): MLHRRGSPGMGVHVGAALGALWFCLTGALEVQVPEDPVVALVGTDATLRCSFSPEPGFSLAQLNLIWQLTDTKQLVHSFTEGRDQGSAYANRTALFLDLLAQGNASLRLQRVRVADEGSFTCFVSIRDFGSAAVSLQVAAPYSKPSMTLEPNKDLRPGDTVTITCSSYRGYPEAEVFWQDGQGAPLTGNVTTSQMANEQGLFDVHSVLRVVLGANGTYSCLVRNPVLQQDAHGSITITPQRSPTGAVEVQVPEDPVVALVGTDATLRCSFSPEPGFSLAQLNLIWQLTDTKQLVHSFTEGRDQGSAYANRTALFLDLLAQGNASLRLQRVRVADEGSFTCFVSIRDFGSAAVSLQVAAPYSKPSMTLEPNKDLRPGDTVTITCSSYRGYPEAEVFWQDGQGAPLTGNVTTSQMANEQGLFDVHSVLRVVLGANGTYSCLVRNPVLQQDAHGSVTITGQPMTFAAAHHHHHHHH
# Experiment: Biacore T200 SPR binding kinetics, mAb capture, soluble ECD of cyno B7-H3
# Set-up: species or system cynomolgus monkey
# Settings: 1:1 binding model
# Protocol: [The source words this procedure for another species and reports this species under the same test.] as §1, §2
Molecule,ka (1/Ms) cynoB7-H3,kd (1/s) cynoB7-H3
B1,1.4e+06 M⁻¹ s⁻¹,0.28 s⁻¹
B2,160000 M⁻¹ s⁻¹,0.00026 s⁻¹
B3,750000 M⁻¹ s⁻¹,0.0056 s⁻¹
B4,690000 M⁻¹ s⁻¹,0.003 s⁻¹
B5,200000 M⁻¹ s⁻¹,0.0042 s⁻¹
B6,380000 M⁻¹ s⁻¹,0.01 s⁻¹
B7,240000 M⁻¹ s⁻¹,2.9e-05 s⁻¹
B8,540000 M⁻¹ s⁻¹,0.00096 s⁻¹
B9,440000 M⁻¹ s⁻¹,0.0037 s⁻¹
B10,55000 M⁻¹ s⁻¹,1e-05 s⁻¹
